Measured values reported in article PMC11420332 (Biologics : Targets & Therapy, 2024).

Tests used:
Test in all cases: ELISA
IL-17B = IL-17B (Homo sapiens, UniProt Q9UHF5)
IL-17C = IL-17C (Homo sapiens, UniProt Q9P0M4)
IL-17D = IL-17D (Homo sapiens, UniProt Q8TAD2)

Measured: binding result

IL-17D, sequence (Q8TAD2 16-202): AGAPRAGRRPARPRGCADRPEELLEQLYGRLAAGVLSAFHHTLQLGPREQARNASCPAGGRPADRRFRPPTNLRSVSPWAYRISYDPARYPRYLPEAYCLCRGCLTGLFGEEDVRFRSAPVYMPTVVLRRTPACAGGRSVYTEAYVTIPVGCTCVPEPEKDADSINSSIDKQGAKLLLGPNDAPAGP
IL-17C, sequence (Q9P0M4 19-197): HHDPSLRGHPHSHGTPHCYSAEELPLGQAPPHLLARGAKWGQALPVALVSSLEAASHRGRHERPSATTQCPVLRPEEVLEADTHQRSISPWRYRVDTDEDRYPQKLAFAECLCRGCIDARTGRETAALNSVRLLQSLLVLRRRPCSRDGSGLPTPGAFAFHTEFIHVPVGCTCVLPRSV
IL-17B, sequence (Q9UHF5 21-180): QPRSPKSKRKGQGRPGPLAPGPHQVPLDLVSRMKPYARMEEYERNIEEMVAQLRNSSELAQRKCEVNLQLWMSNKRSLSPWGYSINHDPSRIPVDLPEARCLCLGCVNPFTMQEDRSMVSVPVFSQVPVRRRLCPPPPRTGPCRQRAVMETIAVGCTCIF

B1: Ixekizumab (antibody, V domains shown)
VH: QVQLVQSGAEVKKPGSSVKVSCKASGYSFTDYHIHWVRQAPGQGLEWMGVINPMYGTTDYNQRFKGRVTITADESTSTAYMELSSLRSEDTAVYYCARYDYFTGTGVYWGQGTLVTVSS
VL: DIVMTQTPLSLSVTPGQPASISCRSSRSLVHSRGNTYLHWYLQKPGQSPQLLIYKVSNRFIGVPDRFSGSGSGTDFTLKISRVEAEDVGVYYCSQSTHLPFTFGQGTKLEIK
no binding (tested: 100 ng/well): all assays above
